{"source": "paper PMC11276760", "target": "integrin β1 (on KYSE410 ESCC cells) (UniProt P05556)", "sequence (P05556 21-798)": "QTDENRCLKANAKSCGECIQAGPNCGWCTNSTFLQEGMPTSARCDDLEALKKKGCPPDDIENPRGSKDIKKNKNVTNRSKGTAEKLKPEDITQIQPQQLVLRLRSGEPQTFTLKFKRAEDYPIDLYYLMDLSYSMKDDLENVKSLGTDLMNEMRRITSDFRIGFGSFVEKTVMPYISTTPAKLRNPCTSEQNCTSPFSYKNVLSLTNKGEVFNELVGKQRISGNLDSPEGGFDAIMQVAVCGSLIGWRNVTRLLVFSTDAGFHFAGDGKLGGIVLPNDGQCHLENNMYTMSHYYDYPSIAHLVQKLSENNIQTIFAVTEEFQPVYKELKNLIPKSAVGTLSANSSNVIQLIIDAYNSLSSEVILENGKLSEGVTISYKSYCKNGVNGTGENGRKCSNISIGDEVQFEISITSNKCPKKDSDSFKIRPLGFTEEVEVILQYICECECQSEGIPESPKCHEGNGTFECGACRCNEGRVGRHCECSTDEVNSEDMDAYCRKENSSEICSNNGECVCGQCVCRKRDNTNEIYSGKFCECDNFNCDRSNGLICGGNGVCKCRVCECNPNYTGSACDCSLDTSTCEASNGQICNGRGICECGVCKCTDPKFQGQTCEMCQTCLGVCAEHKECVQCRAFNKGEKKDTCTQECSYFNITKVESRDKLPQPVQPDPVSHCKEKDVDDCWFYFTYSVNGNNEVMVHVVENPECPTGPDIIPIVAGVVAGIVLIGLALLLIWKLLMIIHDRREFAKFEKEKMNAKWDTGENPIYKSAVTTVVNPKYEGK", "assay": "flow cytometry (cell binding)", "conditions": "0.01 M PBS, 4.5 g/L glucose, 5 mM MgCl2, 1 mg/mL BSA, 0.1 mg/mL yeast tRNA, 30 min on ice, ~1e5 cells, pH not stated"}
{"sequence": "CGCGAATGCTATCGGGGCTAAGTATCAAAATGAGC [A2(35)]", "values": [{"measurement": "Kd", "value": 58.1, "unit": "nM"}]}
{"sequence": "CGTCGTCGTCGTCGTCGTTTTCGCGAATGCTATCGGGGCTAAGTATCAAAATGAGC / ACGACGACGACGACGACGTTTCGCGAATGCTATCGGGGCTAAGTATCAAAATGAGC [BAD (bivalent aptamer-DNA carrier)]", "values": [{"measurement": "Kd", "value": 7.7, "unit": "nM"}]}
